From publication PMC3638396 (Philosophical Transactions of the Royal Society B: …, 2013)

How the values were obtained:
[1] = biological target: the molecule itself; assay: quartz crystal microbalance; sonicated Ure2p fibril seeds attached to the gold sensor by Traut's reagent; 1 μM soluble Ure2p introduced, measured without flow; Tris buffer pH 8.4; elongation of the surface-bound seeds
WT Ssa1p = biological target: T1, WT Ssa1p (yeast (S. cerevisiae), UniProt P10591 1-642); assay: co-sedimentation; called 'pull-down assay' / 'filament pull-down assay': 10 μM Ure2p fibril seeds with 20 μM WT or ΔA Ssa1p, Tris buffer pH 8.4, 30°C, 2 h; centrifuged through 40 per cent sucrose at 61 000 rpm, 30 min, 4°C; washed pellets on SDS-PAGE; conditions: both partners purified
T1 construct: Ssa1p, yeast HSP70 family member, residues 1-642 (NBD, SBD, CTD); also called wild-type Ssa1p; full-length Ssa1p; source: plasmid pPROEX-HTb-Ssa1
T1 sequence (P10591 whole entry, the tested form may be a part): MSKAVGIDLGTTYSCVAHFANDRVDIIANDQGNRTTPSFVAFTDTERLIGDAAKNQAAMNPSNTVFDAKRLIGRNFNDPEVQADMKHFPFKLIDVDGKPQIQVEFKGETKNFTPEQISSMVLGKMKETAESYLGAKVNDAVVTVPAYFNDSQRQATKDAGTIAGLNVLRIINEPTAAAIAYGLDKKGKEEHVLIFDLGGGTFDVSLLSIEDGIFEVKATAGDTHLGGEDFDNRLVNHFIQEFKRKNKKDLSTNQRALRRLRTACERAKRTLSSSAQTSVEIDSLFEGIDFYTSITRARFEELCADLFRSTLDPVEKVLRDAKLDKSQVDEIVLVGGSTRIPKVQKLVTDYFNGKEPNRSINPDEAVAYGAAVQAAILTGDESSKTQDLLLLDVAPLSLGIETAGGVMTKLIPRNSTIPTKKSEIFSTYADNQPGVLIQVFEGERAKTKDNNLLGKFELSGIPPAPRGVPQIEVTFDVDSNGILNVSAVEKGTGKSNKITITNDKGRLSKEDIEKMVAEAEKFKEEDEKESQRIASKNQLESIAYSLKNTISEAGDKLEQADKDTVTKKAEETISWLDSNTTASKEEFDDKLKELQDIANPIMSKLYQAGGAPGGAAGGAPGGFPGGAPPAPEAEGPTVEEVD

B1: Ure2p (natural protein, Saccharomyces cerevisiae, UniProt P23202 1-354, looked up)
chain: MMNNNGNQVSNLSNALRQVNIGNRNSNTTTDQSNINFEFSTGVNNNNNNNSSSNNNNVQNNNSGRNGSQNNDNENNIKNTLEQHRQQQQAFSDMSHVEYSRITKFFQEQPLEGYTLFSHRSAPNGFKVAIVLSELGFHYNTIFLDFNLGEHRAPEFVSVNPNARVPALIDHGMDNLSIWESGAILLHLVNKYYKETGNPLLWSDDLADQSQINAWLFFQTSGHAPMIGQALHFRYFHSQKIASAVERYTDEVRRVYGVVEMALAERREALVMELDTENAAAYSAGTTPMSQSRFFDYPVWLVGDKLTIADLAFVPWNNVVDRIGINIKIEFPEVYKWTKHMMRRPAVIKALRGE
notes: Ure2p, the protein determinant of the Saccharomyces cerevisiae prion state [URE3]; a 354-residue protein; One construct used in two states: native soluble protein (DLS, solution phase of QCM) and sonicated fibril seeds (co-sedimentation, QCM sensor; seeds treated with Traut's reagent for the sensor); The state is told in each assay's format; also called native Ure2p; soluble Ure2p; source: …
B1: binds [1]; binds (WT Ssa1p).
